Test results published in PMC12822413, “TSHR‐Targeting Nucleic Acid Aptamer Treats Graves' Ophthalmopathy via Novel Allosteric Inhibition”.

Biological target: recombinant TSHR-His (UniProt P16473 21-414)
Assay: SPR; 5 mM Mg2+; kon 7.686e4 M-1s-1, koff 9.023e-4 s-1; 25 C; Flow: DPBS, 5 mM MgCl2, 4.5 g/L glucose, 0.1 mg/mL yeast tRNA, 1 mg/mL BSA, 4 C 30 min; SPR: DPBS, 5 mM Mg2+, pH 7.4, 25 C
Conditions: protein: commercial; tags: His; label: FAM (flow); biotin (pull-down); stem-loops (NUPACK predicted)

recombinant TSHR-His, sequence (P16473 21-414): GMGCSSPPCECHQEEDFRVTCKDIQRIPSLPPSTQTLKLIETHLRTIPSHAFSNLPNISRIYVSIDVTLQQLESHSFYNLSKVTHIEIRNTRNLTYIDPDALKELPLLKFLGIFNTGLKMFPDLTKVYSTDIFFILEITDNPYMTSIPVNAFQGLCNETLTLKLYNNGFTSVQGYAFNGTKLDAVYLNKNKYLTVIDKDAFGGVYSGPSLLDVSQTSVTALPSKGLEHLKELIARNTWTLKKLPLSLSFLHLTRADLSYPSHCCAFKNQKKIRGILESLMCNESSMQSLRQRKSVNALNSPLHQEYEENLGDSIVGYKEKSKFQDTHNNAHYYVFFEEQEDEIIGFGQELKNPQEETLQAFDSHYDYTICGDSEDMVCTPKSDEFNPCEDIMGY

B1: YC3 (structured_DNA)
DNA: ACCGACCGTGCTGGACTCAGATGAACAATCGATGGAAGATTGGGTCGCACCGGCCTCTTTCACTATGAGCGAGCCTGGCG
Kd: 11.7 nM
